Measured values as given in patent US20250206841A1 (ADEPT THERAPEUTICS, published 2025).
Substitutions are numbered along the chain they refer to.

T1: cynomolgus Trop-2-His protein (cynomolgus, UniProt P09758 27-274 (human entry))
T1 construct: also called cynmolgus Trop-His; Kactus Cat #TRP-CM121; not shown: His tag
T1 chain: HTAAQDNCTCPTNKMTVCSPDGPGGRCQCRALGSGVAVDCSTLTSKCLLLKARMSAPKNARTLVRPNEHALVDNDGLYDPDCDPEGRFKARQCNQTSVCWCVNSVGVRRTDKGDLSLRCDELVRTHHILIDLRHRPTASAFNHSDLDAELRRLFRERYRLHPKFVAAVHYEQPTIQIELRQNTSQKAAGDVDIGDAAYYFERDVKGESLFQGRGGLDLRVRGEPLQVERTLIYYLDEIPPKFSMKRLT

T2: human Trop-2-His protein (human, UniProt P09758 27-274)
T2 construct: extracellular domain; Assay paragraphs say only 'Trop-2-His'; also called hTrop-2; Kactus Cat #TRP-HM121; not shown: His tag
T2 sequence (looked up): T1 chain with V36M, N67S, S139G, V204I

T3: human Trop-2 expressed on cell surface (human, UniProt P09758 27-323)
T3 construct: whole, on cells; also called cell surface Trop-2
T3 sequence (looked up): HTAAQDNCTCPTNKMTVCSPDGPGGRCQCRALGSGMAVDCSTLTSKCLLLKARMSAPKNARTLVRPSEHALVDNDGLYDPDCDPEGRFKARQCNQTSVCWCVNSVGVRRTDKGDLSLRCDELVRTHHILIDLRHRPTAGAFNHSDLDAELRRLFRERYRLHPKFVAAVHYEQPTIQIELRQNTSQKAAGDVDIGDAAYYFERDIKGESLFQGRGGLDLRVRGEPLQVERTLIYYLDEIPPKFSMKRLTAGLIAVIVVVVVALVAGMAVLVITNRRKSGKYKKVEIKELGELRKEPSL

B1: 1D10 (antibody, V domains shown)
VH: QEQLKESGGGLVQPGGSLTLSCKASGFDFNYYGVSWVRQAPGKGLEWIGYIYPAYHNTYYATWVNGRFTISSHNAQNTLYLQLNTLTAADTATYFCARDAGSTDYNLNLWGPGTLVTVSS
VL: DVVMTQTPASVEVAVGGTVTIKCQASEDIESYLAWYQQKPGQPPRLLIYEASKLASGVSSRFSGGGYGTDFTLTISGVECADAATYYCHQALTIGNVDNPFGGGGEVVVK
notes: Rabbit-derived clone; LEM construct: VH + rabbit IgG CH1 + human IgG1 CH2-CH3
B2: 72F12 (antibody, V domains shown)
VH: B1 VH with T19K, Y31N, G49A, Y55F, T85S, T103V, L107F
VL: DVVMTQTPASVEVAVGGTVTIKCQASKNIDSNLAWYQQKPGQPPKQLIYAASTLASGVSSRFSGSGYGAEFTLTISGVECADAATYYCQQALTIGNVDNPFGGGSEVVVK
notes: as for B1
B3: 9F7 (antibody, V domains shown)
VH: B1 VH with Y31N, A100T, L107F
VL: B1 VL with R45K, D70E, H89Q, I94V, G105S
notes: as for B1
B4: 62E3 (antibody, V domains shown)
VH: B1 VH with T19K, Y31E, G49A, Y55F, S102T, L107F
VL: B1 VL with P8A, A9S, S10P, E12S, V13A, R45K, G65S, D70E, H89Q, G105S
notes: as for B1
B5: 9D7 (antibody, V domains shown)
VH: QSLEESGGDLVQPGASLTLTCKASGFDLNNYSILWVRQAPGKGLEWIGCIYISGGSTYYANWAKGRFAISKTSSTTVTLQMTSLTAADTATYFCARDDGTASYYLNLWGPGTLVTVSS
VL: YDMTQTPASVSEPVGGTVTIKCQASEDIYKLLAWYQQKPGQPPKLLIYAASDLESGVPSRFKGRGSGTDYTLTISDLECADAATYYCQQAYTIGNIDNSFGGGTEVVVK
notes: as for B1

Biological target: T1, cynomolgus Trop-2-His protein
Assay: ELISA, coated Trop-2 protein
Experimental: (§1) Purified antibodies were tested by ELISA to confirm their binding and affinity against human and cynomolgus Trop-2-His protein. Briefly, 96-well Maxisorp plates (Nunc) were coated with 100 μl/well of 0.5 μg/ml human (Kactus Cat #TRP-HM121, or Sino Biological, Cat #10428-HO8H) or cynomolgus Trop-2 protein (Kactus Cat #TRP-CM121, or Sino Biological, Cat #90893-CO8H) diluted in 1×PBS (GIBCO) overnight at 4° C. Plates were washed four times with 300 μl/well washing buffer (1×PBST, diluted from 20×PBST (Thermo Scientific) with distilled water)) and then blocked with 300 μl/well of blocking buffer (1×PBST/3% BSA (BSA, Sigma)) for 2 hours at RT on plate shaker at 100 rpm. Plates were washed and added with 100 μl/well of testing antibodies, which were serial diluted with assay buffer (PBST/1% BSA). The antibodies were incubated at room temperature for 2 hours on plate shaker at 100 rpm. Plates were washed. One hundred microliters (100 μl) of 1:10,000 diluted horseradish peroxidase (HRP) conjugated anti-hIgG antibody (Jackson Immuno Research) was added into each well and incubated at room temperature for 1 hour on plate shaker at 100 rpm. Plates were washed and added with 100 μl/well TMB substrate for color development in dark at room temperature for up to 10 minutes. After addition of 50 μl/well of stop solution (1N H₂SO₄), plates were read at 450 nm on a plate reader (SpectraMax M5). EC₅₀ values were calculated using Graphpad Prism. Sacituzumab govitecan, was used as positive control. Anti-HEL.hIgG1 was used as isotype control.

EC50 | Binder
17 pM | B1
13 pM | B2
30 pM | B3
16 pM | B4
16 pM | B5

Each binder was assayed against T2, human Trop-2-His protein (assay: ELISA, coated Trop-2 protein).
Experimental: as §1

EC50 | Binder
16 pM | B1
13 pM | B2
33 pM | B3
18 pM | B4
17 pM | B5

What follows are binders tested against T3, human Trop-2 expressed on cell surface (assay: flow cytometry, MCF-7 cells).
Experimental: (§2) Cells were then resuspended in FACS buffer (1×DPBS/1% FBS) at 10⁶/ml concentration. One hundred microliter (100 μl) of cells were aliquoted into a single well in 96 well plates. The antibodies to be tested were serially diluted at 1:3 fold starting at 15 μg/mL and were then added into each well. The antibodies were mixed with cells and the mixtures were incubated on ice for 1 hour. After washing with FACS buffer, one hundred microliter (100 μl) of 1:400 diluted PE-conjugated anti-human Fc secondary antibody (Jackson Immuno Research) was added into each well and incubated for 30 minutes on ice. After washing with FACS buffer, stained cells were resuspended at diluted 7-ADD (Biolegend, used at 1:100 dilution) and analyzed on Guava 11HT or 5HT (Luminex). Data was analyzed using Flowjo software. EC₅₀ values were calculated using GraphPad Prism. Sacitnzurnab govitecan was used as positive control. Anti-HEL.hIgG1 was used as isotype negative control. Similar assay was performed using MCF-7 cells (known to express human Trop-2).

EC50 | Binder
900 pM | B1
700 pM | B2
300 pM | B3
700 pM | B4
1200 pM | B5

These binders were tested against T2, human Trop-2-His protein (assay: BLI (Gator Plus), purified Ab on HFC probe).
Experimental: The affinity of the binding of the exemplary anti-Trop-2 antibodies of the present disclosure were determined. Assay was performed using Gator Plus according to the protocol recommended by Gator Bio Inc.. Briefly, human Trop-2-His (Kactus) was 1:4 fold serially diluted starting at 1 μg/ml. After three times of regeneration and neutralization of HFC probe, 1 μg/ml of antibody to be tested in Q buffer was immobilized onto HFC probe. […] The association and dissociation of human Trop-2-His antigen from antibody was measured on BLI machine Gator Plus. Affinity was calculated using Gator Bio analysis software. Blank control was used for reference subtraction. Sacituzumab govitecan was used as positive control.

Kd | koff | kon | Binder
220 pM | 0.000131 s⁻¹ | 604000 M⁻¹ s⁻¹ | B1
630 pM | 0.000541 s⁻¹ | 865000 M⁻¹ s⁻¹ | B2
40 pM | 2.8e-05 s⁻¹ | 634000 M⁻¹ s⁻¹ | B3
590 pM | 0.000429 s⁻¹ | 726000 M⁻¹ s⁻¹ | B4
< 2 pM | < 1e-06 s⁻¹ | 432000 M⁻¹ s⁻¹ | B5

These binders were tested against T3, human Trop-2 expressed on cell surface (assay: cell-based or functional assay).

Internalization %, MCF-7, 0.25 µg/ml, 1 h | Internalization %, MCF-7, 0.25 µg/ml, 2 h | Internalization %, MCF-7, 0.25 µg/ml, 4 h | Internalization %, MCF-7, 0.5 µg/ml, 1 h | Internalization %, MCF-7, 0.5 µg/ml, 2 h | Internalization %, MCF-7, 0.5 µg/ml, 4 h | Binder
30% | 56% | 49% | 44% | 54% | 65% | B1
21% | 37% | 47% | 24% | 39% | 48% | B2
2% | 31% | 36% | 29% | 44% | 49% | B3
23% | 39% | 45% | 21% | 41% | 40% | B4
42% | 75% | 69% | 46% | 60% | 65% | B5

Biological target: T3, human Trop-2 expressed on cell surface
Assay: cell-based or functional assay
Remark: another data set of the same source

Internalization %, MDA-MB-231, 0.25 µg/ml, 2 h | Internalization %, MDA-MB-231, 0.25 µg/ml, 4 h | Internalization %, MDA-MB-231, 0.5 µg/ml, 2 h | Internalization %, MDA-MB-231, 0.5 µg/ml, 4 h | Internalization %, MDA-MB-231, 1 µg/ml, 2 h | Internalization %, MDA-MB-231, 1 µg/ml, 4 h | Internalization %, MDA-MB-231, 2 µg/ml, 2 h | Internalization %, MDA-MB-231, 2 µg/ml, 4 h | Binder
46% | 53% | 48% | 52% | 41% | 51% | 39% | 44% | B1
38% | 48% | 42% | 48% | 35% | 45% | 37% | 45% | B2
34% | 38% | 34% | 46% | 33% | 41% | 28% | 31% | B3
41% | 46% | 42% | 45% | 43% | 49% | 43% | 48% | B4
42% | 52% | 47% | 55% | 43% | 54% | 42% | 49% | B5

These binders were tested against T3, human Trop-2 expressed on cell surface (assay: flow cytometry, MDA-MB-231-GFP cells).
Experimental: as §2

EC50 | Binder
10 pM | B1
10 pM | B2
30 pM | B3
10 pM | B4
30 pM | B5

Biological target: T3, human Trop-2 expressed on cell surface
Assay: cell-based or functional assay
Remark: another data set of the same source

EC50 of ADCC (NFAT-CD16 reporter), MCF-7 | EC50 of ADCC (NFAT-CD16 reporter), MDA-MB-231 | Binder
280 pM | 40 pM | B1
160 pM | 70 pM | B2
180 pM | 30 pM | B3
400 pM | 40 pM | B4
280 pM | 90 pM | B5
